Results as given in US5348941A, “Stabilizers for fibroblast growth factors” (Merck & Co., Inc., priority 1992, dated 1994).

Experiments:
Type in all cases: biochemical
aFGF [1] = molecular target: T1, aFGF (Homo sapiens, UniProt P05230); assay: Copper-catalyzed oxidation of aFGF thiol groups
T1 construct: The recombinant derived, 140 amino add form is the preferred form of aFGF; N-terminal methionine (MetHaFGF); made in house; host or cells: microbial cells (preferred embodiment)
Method: Copper-catalyzed oxidation of aFGF is carried out in the following manner. Acidic FGF (about 80 μg/ml) is incubated in a 20 mM Tris, 0.15M potassium chloride, pH 8 solution containing about 20 μM cuptic chloride for varying periods of time at room temperature. The reaction was terminated by the addition of 100 mM EDTA in the same buffer. A solution of about 0.7 ml of 0.25M Tris (about pH 8) containing about 2 mM EDTA and about 7 M GuHC1 is then added followed by about 35 μl of 4 mg/ml of DTNB (Sigma). Samples were incubated for 30 minutes, filtered through a 0.22 micron filter and the optical density measured at about 412 nm to determine sulfhydryl content, Riddles et al., Meth. Enzymol. 9:49-60 (1983). Relative standard deviation of the obtained values during time course experiments is 12%.
Acidic FGF contains three free cysteine residues at positions […], 83 and 117 in the polypeptide chain. […] It has also been shown that the copper catalyzed oxidative formation of a disulfide bond in the wild-type aFGF inactivates the protein in an in vitro mitogenic assay, Ortega et al., J. Biol. Chem. 266:5842-5846 (1991). Therefore, it was of interest to determine the extent to which heparin can stabilize aFGF against inactivation by oxidation. […] Samples contained 80 μg/ml aFGF with (a) 3X heparin by weight, (b) 0.1X heparin by weight and (c) buffer alone. As heparin was introduced and its concentration increased, the rate of copper-catalyzed oxidation decreased. For example, after 20 minutes, greater than 95% of the cysteine residues of aFGF are protected from oxidation with 3X heparin. FIG. 4B illustrates the fraction of remaining reactive thiol groups after a 10-minute incubation with cupric chloride as a function of heparin concentration.
Some aggregation of aFGF occurs under the conditions of these experiments presumably due to at least partial intermolecular disulfide formation. Thus, these measurements could simply be a measurement of the loss of solubility induced by copper association with aFGF. Several experiments, however, argue against this possibility. First, previous work has shown that at dilute protein concentration, copper does indeed catalyze oxidation of thiol groups of aFGF, Ortega et al., J. Biol. Chem. 266:5842-5846 (199 1 ). Second, as a control experiment, the copper-catalyzed oxidation of aFGF was carded out in a buffer containing 6 M GuHCl. Under these denaturing conditions, nearly 100% of the thiol groups in solution were lost after 10 minutes without visible aggregation. […] Regardless of the precise mechanism, copper addition is a distinct mechanism of inactivation compared to thermal stress.
Similar protection against oxidation experiments were carried out with other negatively charged compounds with an excess of ligand (3X by weight except for sodium sulfate at 120 mM and tetrapolyphosphate at 10 mM) added to aFGF before copper catalyzed oxidation. As shown in the second column of Table 2, all of these agents at least partially protect the cysteine residues of aFGF from oxidation.
^(b) Percentage of aFGF thiols remaining in solution after 10 min
incubation with cupric chloride. Experimental conditions are described in
FIG. 10. All samples contained ligand at 3× (by weight) except
sodium sulfate (120 mM) and tetrapolyphosphate (10 mM).

aFGF [2] = molecular target: T1, aFGF; assay: Thermal denaturation (Tm) of aFGF by circular dichroism; conditions: buffer alone
Method: Circular Dichroism (CD) spectra are measured with an AVIV 62 DS spectropolarimeter. Samples of aFGF at about 100 μg/ml in a PBS buffer (6 mM sodium phosphate, 120 mM NaCl, pH 7.2) containing various ligands are placed into 1 mm pathlength cells and the cell temperature is controlled by circulating a water/ethylene glycol mixture through the cell holder. Thermal denaturation is carded out under computer control by increasing the temperature of the water bath in 2° C. increments, followed by a two-minute equilibration period at each temperature to allow the sample to reach thermal equilibrium. Reproducibility of the midpoint of these temperature melting curves (Tm) is ±2° C.
The maximum Tm values induced by 12 different ligands as determined by circular dichroism measurements at 228 nm are summarized in the first column of Table II. All of these ligands stabilize aFGF by 15°-25° C. in a manner similar to that originally observed with heparin. […] Furthermore, sulfate unions are found near analogous residues in the crystal structure of basic FGF, Eriksson et al., Proc. Natl. Acad. Sd. USA 88:3441-3445 (1991); Zhang et al., Proc. Natl. Acad. Sci. USA 88:3446-3450 (1991). Consequently, it seemed important to examine the ability of these ligands to stabilize aFGF during thermal denaturation as monitored by both fluorescence and circular dichroism. The Tm value of aFGF increased from 27° C. to 43° C. (fluorescence)and 45° C. to 51° C. (CD) when a 100 molar excess (3X by weight) of (IrCl6)^-3 was present. Similarly, sulfate union (120 mM) produced a species that was even more dramatically stabilized, melting at 57° C. (CD).
^(a) Thermal melting temperatures were measured by circular dichroism
Samples contained […] aFGF in PBS buffer pH 7.2 with excess ligand
(1-3× by weight except for 120 mM sodium sulfate and 10 mM

aFGF [3] = molecular target: T1, aFGF; assay: Thermal denaturation (Tm) of aFGF by fluorescence spectroscopy; conditions: no heparin, PBS pH 7.2
Method: Fluorescence spectra are obtained with a Spex Fluorolog-2 spectrofiuorometer using a 1 mm pathlength cuvette. Band passes from 1-2 nm are employed with sample absorptivities maintained below 0.1 at 280 nm. The temperature is controlled either manually or automatically as described above. Reproducibility of thermal denaturation temperatures (Tm) is ± 2° C.
To more directly ascertain the effect of heparin on aFGF stability, the temperature-induced denaturation of aFGF as a function of heparin concentration was monitored by fluorescence spectroscopy. Fluorescence spectra were obtained with a Spex Fluorolog-2 spectrofiuorometer using a 1 mm pathlength cuvette. Band passes from 1-2 nm were employed with sample absorptivities maintained below 0.1 at 280 nm. The temperature was controlled either manually or automatically as described above. Reproducibility of thermal denaturation temperatures (Tm) was ±2° C. […] Experiments were carried out at 100 μg/ml protein (6.3 μM) in a PBS buffer at pH 7.2. Curve drawn through data points for clarity only.
Studies of the stabilization of aFGF by heparin are difficult to interpret because of the inherent heterogeneity of heparin preparations, Lane and Lindahl, Eds. Heparin, Chemical and Biological Properties, Clinical Applications, Edward Arnold, London (1989); Jackson, et al., Physiol. Rev. 71: 481-539 (1991). In order to better understand the polyanionic stabilization of aFGF, a series of well-defined fragments of heparin were examined for their ability to stabilize aFGF against thermal denaturation. These enzymatically prepared and purified fragments varied in size from a disaccharide to a decasaccharide. Each fragment was incubated with aFGF at a 1:1 weight ratio in a PBS buffer. The sample was then stressed by temperature and structural changes in aFGF were monitored by both circular dichroism and fluorescence spectroscopy. […] All samples contained 100 μg/ml aFGF (6.3 μM)in a PBS buffer (pH 7.2) with 100 μg/ml of each heparin fragment.
Since these fragments of heparin have a well-defined molecular weight, the molar ratio of aFGF to ligand during these thermal denaturation experiments can be calculated. The Tm of aFGF as a function of the molar concentration of the hexasaccharide was measured by fluorescence spectroscopy. Fluorescence spectra were obtained with a Spex Fluorolog-2 spectrofiuorometer using a 1mm pathlength cuvette. Band passes from 1-2 nm were employed with sample absorptivities maintained below 0.1 at 280 nm. The temperature was controlled either manually or automatically as described above. Reproducibility of thermal denaturation temperatures (Tm) was ±2° C.
Analogous to the heparin experiments illustrated in Example 1 (FIG. 3), aFGF thermal stability was monitored by fluorescence spectroscopy as a function of concentration for several other of the polyanions. […] All samples contained 100 μg/ml of aFGF (6.3 μM) in a PBS buffer at pH 7.2.

aFGF [4] = molecular target: T1, aFGF; assay: Copper-catalyzed oxidation of aFGF thiol groups; conditions: 6 M GuHCl, 10 minutes, 1 μM CuCl2, 5 μM aFGF

T1 sequence (P05230 16-155 limits assumed): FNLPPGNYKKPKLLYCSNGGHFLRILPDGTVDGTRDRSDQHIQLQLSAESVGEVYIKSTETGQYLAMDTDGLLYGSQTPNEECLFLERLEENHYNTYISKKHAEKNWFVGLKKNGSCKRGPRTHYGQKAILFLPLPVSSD

aFGF: human acidic fibroblast growth factor, molecular mass of about 15.9 kDa
thiol groups of aFGF lost (aFGF [1]; 6 M GuHCl, 10 minutes): ~100%
free thiols of aFGF lost (aFGF [1]; 10-minute incubation, absence of polyanions): 60%
total thiol groups of aFGF reacted (aFGF [1]; buffer alone, after 6 hours, cupric chloride): 70-75%
thiol groups of aFGF oxidized (aFGF [1]; buffer alone, within several minutes, cupric chloride): 50-60%
Tm of aFGF, circular dichroism (aFGF [2]): 45 °C
thermal denaturation temperature (Tm) of aFGF, fluorescence (aFGF [3]): 27 °C
thermal denaturation temperature (Tm) of aFGF, fluorescence (aFGF [3]; listed as native aFGF): < 30 °C
loss of thiol groups of aFGF (aFGF [4]): 10%
